According to publication PMC8287928:

Assays:
Human alpha-thrombin = Human alpha-thrombin (human, UniProt P00734;P00734 315-363;364-622)
[1] = molecular target: SARS-CoV-2 spike S1 subunit (SARS-CoV-2 (wild type), UniProt P0DTC2 16-685); conditions: protein: commercial; tags: His
HCoV-229E RBD = HCoV-229E RBD (HCoV-229E, UniProt P15423 293-435); assay: dot blot (filter binding); 50 nM protein; conditions: protein: recombinant; tags: C-terminal His; hairpin
[2] = molecular target: SARS-CoV-2 spike S1 subunit (SARS-CoV-2 (wild type), UniProt P0DTC2 16-685); conditions: protein: commercial; tags: His; remark: listed apart in the source
[3] = molecular target: SARS-CoV-1 full spike protein (SARS-CoV-1, UniProt P59594 14-1195); conditions: protein: commercial; chain copies: 3; label: 5'-32P; hairpin
MERS-CoV RBD = MERS-CoV RBD (MERS-CoV, UniProt K9N5Q8 367-588); conditions: protein: recombinant; tags: C-terminal His; label: 5'-32P; hairpin
SARS-CoV-1 RBD = SARS-CoV-1 RBD (SARS-CoV-1, UniProt P59594 306-527); conditions: protein: recombinant; tags: C-terminal His; label: 5'-32P; hairpin
SARS-CoV-2 spike RBD = SARS-CoV-2 spike RBD (SARS-CoV-2, UniProt P0DTC2 319-541); conditions: protein: commercial

HCoV-229E RBD, sequence (P15423 293-435): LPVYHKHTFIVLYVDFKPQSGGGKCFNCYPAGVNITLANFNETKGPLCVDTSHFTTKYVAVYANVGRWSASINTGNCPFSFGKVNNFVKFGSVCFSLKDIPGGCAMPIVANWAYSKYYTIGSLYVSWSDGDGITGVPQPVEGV
MERS-CoV RBD, sequence (K9N5Q8 367-588): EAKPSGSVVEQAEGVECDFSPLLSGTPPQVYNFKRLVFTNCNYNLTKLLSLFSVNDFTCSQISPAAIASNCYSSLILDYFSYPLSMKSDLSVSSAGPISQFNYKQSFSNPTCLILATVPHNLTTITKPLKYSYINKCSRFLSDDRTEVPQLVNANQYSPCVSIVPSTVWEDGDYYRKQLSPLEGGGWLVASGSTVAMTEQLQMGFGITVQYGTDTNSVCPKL

| Binder | Kd [2] | also measured |
| --- | --- | --- |
| MSA1 (structured_DNA) DNA: TTACGTCAAGGTGTCACTCCCACTTTCCGGTTAATTTATGCTCTACCCGTCCACCTACCGGAAGCATCTCTTTGGCGTG |  | binding result (Human alpha-thrombin): no binding; Kd [1]: 1.8 ± 0.4 nM; binding result (HCoV-229E RBD): no binding |
| MSA2 (structured_DNA) DNA: TTACGTCAAGGTGTCACTCCTCAGTGGGAGGGGGTCCATGTCTTGTCGGGGTCGGGGGTGGAAGCATCTCTTTGGCGTG | 9.2 ± 0.2 nM |  |
| MSA5 (structured_DNA) DNA: TTACGTCAAGGTGTCACTCCACGGGTTTGGCGTCGGGCCTGGCGGGGGGATAGTGCGGTGGAAGCATCTCTTTGGCGTG | 2.7 ± 0.2 nM | binding result [3]: no binding; binding result (MERS-CoV RBD): no binding; binding result (SARS-CoV-1 RBD): no binding; binding result (Human alpha-thrombin): no binding; Kd (SARS-CoV-2 spike RBD): 4 ± 0.6 nM; binding result (HCoV-229E RBD): no binding |
| MSA3 (structured_DNA) DNA: TTACGTCAAGGTGTCACTCCTACAGCGTCTGGTTGGTTTGGTTGGATCTTCGATCGCTGTGAAGCATCTCTTTGGCGTG | 1.9 ± 0.1 nM |  |
| TCCGGTTAATTTATGCTCTACCCGTCCACCTACCGGA (structured_DNA) [MSA1-T3] | 3.1 nM |  |
| CCGGTTAATTTATGCTCTACCCGTCCACCTACCGG (structured_DNA) [MSA1-T4] |  | fold Kd increase [2]: 36 fold Kd increase vs MSA1-T3 |
| ACAGCGTCTGGTTGGTTTGGTTGGATCTTCGATCGCTGT (structured_DNA) [MSA3-T2] | 1.9 nM |  |
| TCCACGGGTTTGGCGTCGGGCCTGGCGGGGGGATAGTGCGGTGGA (structured_DNA) [MSA5-T1] | 8.4 nM |  |
| ACGGGTTTGGCGTCGGGCCTGGCGGGGGGATAGTGCGGT (structured_DNA) [MSA5-T2] | 10.1 nM |  |
| CTCCACGGGTTTGGCGTCGGGCCTGGCGGGGGGATAGTGCGGTGGAG (structured_DNA) [MSA5-T3] | 7.3 nM |  |
| CTTCCACGGGTTTGGCGTCGGGCCTGGCGGGGGGATAGTGCGGTGGAAG (structured_DNA) [MSA5-T4] | 6.3 nM |  |
| MSA4 (structured_DNA) DNA: TTACGTCAAGGTGTCACTCCTGTGGGCGGGGGCGGTTGATTGTATTACTGTCGGGAGGGGGAAGCATCTCTTTGGCGTG | 27.6 ± 0.6 nM |  |
| TCCACGGGTTTGCTGGCGGGGGGATAGTGCGGTGGA (structured_DNA) [MSA5-T6] | 264 nM |  |
| TCCACGGCGTCGGGCCTGGCGGGGGGATAGTGCGGTGGA (structured_DNA) [MSA5-T7] | 22.8 nM |  |
| TTCCGGTTAATTTATGCTCTACCCGTCCACCTACCGGAA (structured_DNA) [MSA1-T2] |  | binding result [2]: binds |
| MSA6 (structured_DNA) DNA: TTACGTCAAGGTGTCACTCCTCGGGGGGGTTTGGCACTGGGCCTGGCAGTACCGGGTCGCGAAGCATCTCTTTGGCGTG | 16.2 ± 2.3 nM |  |
| MSA7 (structured_DNA) DNA: TTACGTCAAGGTGTCACTCCTGGCTGTGGGGTTCGGGGTCACTATTTGTCGGGAGGGGAGGAAGCATCTCTTTGGCGTG | 76.2 ± 10.5 nM |  |
| MSA8 (structured_DNA) DNA: TTACGTCAAGGTGTCACTCCATGTGGGTGGGGGTCATTCTTCAGTGTCGGGAGGGGGTGGAAGCATCTCTTTGGCGTG | 23 ± 1 nM |  |
| MSA9 (structured_DNA) DNA: TTACGTCAAGGTGTCACTCCTTCGTGTGGGTGGGGTCCTAACTTTCCTGTCGGGGTCGGGGAAGCATCTCTTTGGCGTG | 37.4 ± 1.6 nM |  |
| MSA10 (structured_DNA) DNA: TTACGTCAAGGTGTCACTCCGCGGGTTTGGCTCCGGGCCTGGCGTTGCGGTCTGCTCCCCGAAGCATCTCTTTGGCGTG | 134 ± 21.3 nM |  |
